Each block holds one molecule with its values, some of them ahead of it.
Assays:
[1] = biological target: Medicago truncatula fatty acid amide hydrolase 1 (MtFAAH1) (Medicago truncatula); assay: SEC; Superdex 200 Increase 10/300 GL; 50 mM Bis-Tris-Propane pH 9.0, 100 mM NaCl, 0.03% DDM; mass interpolated from Kav against standards, mean elution volume of six purifications, DDM micelle (about 70 kDa) taken into account
[2] = biological target: Medicago truncatula fatty acid amide hydrolase 2a (MtFAAH2a) (Medicago truncatula); assay: SEC; Superdex 200 Increase 10/300 GL; buffers at pH 7.5, 0.06% DDM; mass interpolated from Kav against standards, mean elution volume of six purifications, DDM micelle (about 70 kDa) taken into account
[3] = substrate: CCCCCCCCCCCC(=O)CC(=O)N[C@H]1CCOC1=O; assay: fluorescamine assay of released amine, Michaelis-Menten fit; format: biochemical, Medicago truncatula; conditions: 100 mM NaCl, 30 °C, apparent
[4] = substrate: O=C(/C=C/c1ccc(O)cc1)N[C@H]1CCOC1=O; assay: as above; format: biochemical, Medicago truncatula; conditions: 100 mM NaCl, 30 °C, apparent
[5] = substrate: CCCCC/C=C\C=C\C(O)CCCCCCCC(=O)NCCO; assay: as above; format: biochemical, Medicago truncatula; conditions: 100 mM NaCl, 30 °C, apparent
[6] = substrate: O=C(/C=C/c1ccc(O)cc1)NCCc1ccc(O)cc1; assay: as above; format: biochemical, Medicago truncatula; conditions: 100 mM NaCl, 30 °C, apparent
[7] = substrate: CCCCC/C=C\C/C=C\CCCCCCCC(=O)NCCO; assay: as above; format: biochemical, Medicago truncatula; conditions: 100 mM NaCl, 30 °C, apparent
[8] = substrate: CCCCCCCCCCCC(=O)NCCO; assay: as above; format: biochemical, Medicago truncatula; conditions: 100 mM NaCl, 30 °C, apparent
[9] = substrate: C/C=C/C=C\CC/C=C/C(=O)NCC(C)C; assay: as above; format: biochemical, Medicago truncatula; conditions: 100 mM NaCl, 30 °C, apparent
[10] = substrate: CCCCCCCCCC(=O)CC(=O)N[C@H]1CCOC1=O; assay: as above; format: biochemical, Medicago truncatula; conditions: 100 mM NaCl, 30 °C, apparent
[11] = biological target: the molecule itself; assay: SEC; AtFAAH run as reference for the MtFAAH calculations, in solution with detergent; its conditions are not told in the text (Supplementary Fig. S13)

- stoichiometry N [1]: 4
Molecule: Medicago truncatula fatty acid amide hydrolase 1 (MtFAAH1) (enzyme)

- stoichiometry N [2]: 4
Molecule: Medicago truncatula fatty acid amide hydrolase 2a (MtFAAH2a) (enzyme)

B1: MtFAAH1 (Medicago truncatula) (protein)
chain: MGKKRVMVPAKDVDLSSIKYEPEIVQAPHLTGFWFRFFVRLIEAPLIGPFLLTMLKKENKIDQLLRNTVFPEEPMFKPEYPPQEKEHSVVELDEDGRPEGRVESALNCLPHYDPAKLWENSSATFRYWKIRDYAYAYQSRKVTPSMVAESIISMIEENGIDKPPTPLLLSFDAAEVRKQAAASTQRFESGNPLSILDGIFIAIKDDIDCHPHPSTGGSTWMHEVRDVKKDAVCVSRLRSCGVIFIGKTNMHEFGMGTTGNNSNYGTARNPHAPDRYTGGSSSGPAAIVASGLCSAALGTDGGGSVRIPSSLCGVVGLKINYGRTSMEGSLCDSGTVEVIGPIASTVEDAMLVYAAMLGASPANRISMKPSTPCLPTLSSDDDTDALRSLRIGIYTPWFNNVHSTEVSDKCEDALNLLSKAHGCEVVEVVIPEIVEMRTAHLVSIGSECLSSLNPDIEDGKGVKLSYDTRTSLALFQSFTAADYVAAQCIRRRIMHYFMEIFKKVDVIVTPTTGMTAPRIPPSALKSGETDMPTTGYLMRFVVPANLLGLPAISVPVGYDKEGLPIGLQVIGRPWAEATILRVAAAVEKLCGESKRRPVTYYDVLGAN
notes: full-length CDS from A17 stem cDNA; C-terminal c-myc and 6xHis tags (pTrcHIS2), E. coli BL21(DE3); estimated homotetramer in DDM; catalytic Ser304
- Km ([3]; pH 9, 25 mM HEPES, 0.03% DDM): 5.60 ± 0.6 µM
- kcat ([3]; pH 9, 25 mM HEPES, 0.03% DDM): 0.79 s⁻¹
- Km ([4]; pH 9, 25 mM HEPES, 0.03% DDM): 10.2 ± 2.5 µM
- kcat ([4]; pH 9, 25 mM HEPES, 0.03% DDM): 0.33 s⁻¹
- Km ([5]; pH 9, 25 mM HEPES, 0.03% DDM): 5.00 ± 0.4 µM
- kcat ([5]; pH 9, 25 mM HEPES, 0.03% DDM): 1.25 s⁻¹
- Km ([6]; pH 9, 25 mM HEPES, 0.03% DDM): 25.9 ± 7.0 µM
- kcat ([6]; pH 9, 25 mM HEPES, 0.03% DDM): 0.51 s⁻¹
- Km ([7]; pH 9, 25 mM HEPES, 0.03% DDM): 4.83 ± 0.6 µM
- kcat ([7]; pH 9, 25 mM HEPES, 0.03% DDM): 1.05 s⁻¹
- Km ([8]; pH 9, 25 mM HEPES, 0.03% DDM): 13.9 ± 3.6 µM
- kcat ([8]; pH 9, 25 mM HEPES, 0.03% DDM): 0.86 s⁻¹
- Km ([9]; pH 9, 25 mM HEPES, 0.03% DDM): 6.81 ± 2.6 µM
- kcat ([9]; pH 9, 25 mM HEPES, 0.03% DDM): 0.32 s⁻¹
- Km ([10]; pH 9, 25 mM HEPES, 0.03% DDM): 5.33 ± 0.6 µM
- kcat ([10]; pH 9, 25 mM HEPES, 0.03% DDM): 0.87 s⁻¹

B2: Arabidopsis thaliana fatty acid amide hydrolase (AtFAAH) (enzyme)
chain: MGKYQVMKRASEVDLSTVKYKAETMKAPHLTGLSFKLFVNLLEAPLIGSLIVDYLKKDNGMTKIFRNTVIPEEPMFRPEFPSQEPEHDVVIVGEDESPIDRLETALKCLPQYDPSRSLHADPVSSFRYWKIRDYAYAYRSKLTTPLQVAKRIISIIEEFGYDKPPTPFLIRFDANEVIKQAEASTRRFEQGNPISVLDGIFVTIKDDIDCLPHPTNGGTTWLHEDRSVEKDSAVVSKLRSCGAILLGKANMHELGMGTTGNNSNYGTTRNPHDPKRYTGGSSSGSAAIVAAGLCSAALGTDGGGSVRIPSALCGITGLKTTYGRTDMTGSLCEGGTVEIIGPLASSLEDAFLVYAAILGSSSADRYNLKPSPPCFPKLLSHNGSNAIGSLRLGKYTKWFNDVSSSDISDKCEDILKLLSNNHGCKVVEIVVPELEEMRAAHVISIGSPTLSSLTPYCEAGKNSKLSYDTRTSFAIFRSFSASDYIAAQCLRRRLMEYHLNIFKDVDVIVTPTTGMTAPVIPPDALKNGETNIQVTTDLMRFVLAANLLGFPAISVPVGYDKEGLPIGLQIMGRPWAEATVLGLAAAVEELAPVTKKPAIFYDILNTN
notes: AtFAAH, fatty acid amide hydrolase (a FAAH1 enzyme), Arabidopsis thaliana; also called A. thaliana FAAH; AtFAAH1; source: recombinant, purified
- stoichiometry N [11]: 2

B3: MtFAAH2a (Medicago truncatula) (protein)
chain: MGLFKSKRVVYKPVKDVNLGPDSTEFYLQANVKAPRMTGILVKIVAWLLECRIIGAFLLYILKGNNLIHKYITNADIEEPPLYVPLHHFEDHKEQEVKSLDLALTPPDKVQVAIDCLPTTLQRPINGTKPSFNRWTIMDYFRAYSSGDITPHMVAERFIAAVDESSKPTLQMGFFINYNVEDILRQANESTLRYQKGEPISVLDGVPVAIKDEIDCLPYPTTGGTKWLHKQRPCTDDACCIKRLRLCGAVLVGKTNMHELGAGTSGINPHYGATRNPHNASRIAGGSSSGSAAVVSAGLCPVALGVDGGGSVRMPAALCGIVGLKPTFSRIPHSGVIPLNWTVGMVGILAGTVEDSLITYAAISGEIPSRQPSSIPAKINLPLLPLTKSISKIKLAKYGKWFDDCSDDVRICCSGALNKLQGHYGWKIVDVTIPEIEVMRLAHYSTIGSECNTSLDYFQDKNLADFGWDARVALKIYGSFSSMEYIKAQKIRNRQLQFHKKIFSEADIIVSPTTGVTAYPIQDDALKTGELDYVNGAALIRYSIAGNFLGLPAVTVPVGYDKLGLPIGLQFIGRPWAEATLIHLAFAMQTICLSEYRKPAIFYDLLRTN
notes: full-length synthesized CDS (GENEWIZ) subcloned in pTrcHIS2, C-terminal c-myc and 6xHis tags, E. coli; estimated homotetramer in DDM; catalytic Ser311
- Km ([3]; pH 7.5, 25 mM HEPES, 0.06% DDM): 14.6 ± 1.7 µM
- kcat ([3]; pH 7.5, 25 mM HEPES, 0.06% DDM): 0.96 s⁻¹
- Km ([4]; pH 7.5, 25 mM HEPES, 0.06% DDM): 13.8 ± 1.9 µM
- kcat ([4]; pH 7.5, 25 mM HEPES, 0.06% DDM): 1.64 s⁻¹
- Km ([5]; pH 7.5, 25 mM HEPES, 0.06% DDM): 18.7 ± 2.9 µM
- kcat ([5]; pH 7.5, 25 mM HEPES, 0.06% DDM): 0.35 s⁻¹
- Km ([6]; pH 7.5, 25 mM HEPES, 0.06% DDM): 10.8 ± 1.1 µM
- kcat ([6]; pH 7.5, 25 mM HEPES, 0.06% DDM): 1.51 s⁻¹
- Km ([7]; pH 7.5, 25 mM HEPES, 0.06% DDM): 15.1 ± 2.9 µM
- kcat ([7]; pH 7.5, 25 mM HEPES, 0.06% DDM): 0.60 s⁻¹
- Km ([8]; pH 7.5, 25 mM HEPES, 0.06% DDM): 13.8 ± 1.7 µM
- kcat ([8]; pH 7.5, 25 mM HEPES, 0.06% DDM): 1.26 s⁻¹
- Km ([9]; pH 7.5, 25 mM HEPES, 0.06% DDM): 7.64 ± 1.5 µM
- kcat ([9]; pH 7.5, 25 mM HEPES, 0.06% DDM): 1.28 s⁻¹
- Km ([10]; pH 7.5, 25 mM HEPES, 0.06% DDM): 13.2 ± 2.1 µM
- kcat ([10]; pH 7.5, 25 mM HEPES, 0.06% DDM): 1.11 s⁻¹

— PMC10169808, “Two legume fatty acid amide hydrolase isoforms with distinct preferences for microbial- and plant-derived acylamides” (Scientific Reports, 2023)
